The target in the assay is N-type (CaV2.2) Ca2+ channel (α1B with β2a and α2δ) in HEK293 cells (human; rat), Q00975. Kind of assay: cell-based or functional assay.
Sequence of N-type (CaV2.2) Ca2+ channel (α1B with β2a and α2δ) in HEK293 cells (human; rat), Q00975 (P54290 25-1091, stated change not applied, chain 3 of 2, other chains not shown): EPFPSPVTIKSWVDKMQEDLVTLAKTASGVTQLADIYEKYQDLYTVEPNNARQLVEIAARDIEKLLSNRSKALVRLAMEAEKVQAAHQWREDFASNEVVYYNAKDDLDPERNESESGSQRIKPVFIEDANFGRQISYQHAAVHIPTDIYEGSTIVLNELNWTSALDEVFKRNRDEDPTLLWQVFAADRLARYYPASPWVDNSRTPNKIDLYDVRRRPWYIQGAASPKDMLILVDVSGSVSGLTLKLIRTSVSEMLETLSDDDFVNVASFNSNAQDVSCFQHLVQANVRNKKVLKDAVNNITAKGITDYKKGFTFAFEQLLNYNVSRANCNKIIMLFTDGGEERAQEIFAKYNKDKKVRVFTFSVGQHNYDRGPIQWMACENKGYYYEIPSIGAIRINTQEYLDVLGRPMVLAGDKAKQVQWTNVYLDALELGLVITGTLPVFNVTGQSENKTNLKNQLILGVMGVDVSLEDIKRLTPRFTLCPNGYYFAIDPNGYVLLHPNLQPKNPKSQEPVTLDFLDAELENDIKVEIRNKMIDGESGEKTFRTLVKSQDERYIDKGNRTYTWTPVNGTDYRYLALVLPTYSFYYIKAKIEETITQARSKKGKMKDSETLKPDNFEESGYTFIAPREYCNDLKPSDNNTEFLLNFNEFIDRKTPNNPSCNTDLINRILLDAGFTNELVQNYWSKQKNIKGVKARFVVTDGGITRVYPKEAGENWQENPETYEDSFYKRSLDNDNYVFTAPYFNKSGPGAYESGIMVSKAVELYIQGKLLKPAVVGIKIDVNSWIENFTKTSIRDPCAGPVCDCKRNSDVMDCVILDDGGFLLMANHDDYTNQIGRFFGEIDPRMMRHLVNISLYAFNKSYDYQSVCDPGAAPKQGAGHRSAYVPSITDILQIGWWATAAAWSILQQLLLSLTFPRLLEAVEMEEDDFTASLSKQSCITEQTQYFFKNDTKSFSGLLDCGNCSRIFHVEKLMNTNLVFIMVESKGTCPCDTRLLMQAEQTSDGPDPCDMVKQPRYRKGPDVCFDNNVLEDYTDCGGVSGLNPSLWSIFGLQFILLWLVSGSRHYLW

B1: free NTB peptide (residues 1-95, without CFP fusion) (peptide)
peptide: MVRFGDELGGRYGGPGGGERARGGGAGGAGGPGPGGLQPGQRVLYKQSIAQRARTMALYNPIPVKQNCFTVNRSLFVFSEDNVVRKYAKRITEWP
Molecule B1 registered a DF, degree of prepulse facilitation, free NTB with Gβγ of 4 and a conversion to constitutively reluctant channels, free NTB with Gβγ of 75%.

These data come from patent publication US20080279864A1.
